The values that follow come from patent US20050049402A1 (Amgen, published 2005).

Test [1] deals with T1, human TNFα (Tumor Necrosis Factor-alpha), soluble (human, UniProt P01375 77-233). Nature of the test: cell-based or functional assay.
For a further test, the target named is human TNFα R131Q mutant (human, UniProt P01375 77-233). Nature of the test: ELISA on chimeric/mutant TNFα. The source says: (§1) In order to define the binding site for different antibodies, a number of residues of hTNFα were mutated using site directed mutagenesis. A panel of antibodies was screened for binding by an ELISA assay. […] Histidine at position 73 was deleted, an example is illustrated in Table 19.
A general note: ELISA stands for enzyme-linked immunosorbent assay.

The target in another test is human TNFα R31Q mutant (human, UniProt P01375 77-233). The experiment in a line: ELISA on chimeric/mutant TNFα.
Source text: as §1

For test [2], the target named is human TNFα R31Q, Q27E mutant (human, UniProt P01375 77-233). The experiment in a line: ELISA on chimeric/mutant TNFα.
Source text: as §1

In test [3] the target is T2, H/M BglI chimeric TNFα (human 1-36, murine 37-157) (human; mouse, UniProt P06804 81-235).
T2 construct: Murine range is printed as 37-157 in human-aligned numbering; also called H/MBgl1; Hu/MBgl1
T2 chain: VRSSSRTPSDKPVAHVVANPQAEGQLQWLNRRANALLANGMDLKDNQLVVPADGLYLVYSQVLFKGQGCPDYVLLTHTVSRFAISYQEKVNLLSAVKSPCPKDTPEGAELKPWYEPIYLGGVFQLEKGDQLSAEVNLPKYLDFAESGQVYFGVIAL
The experiment in a line: ELISA on chimeric/mutant TNFα.
Source text: as §1

The target of test [4] is T3, H/M PvuII chimeric TNFα (human 1-125, murine 126-157) (human; mouse).
T3 construct: also called Hu/M PVu11
T3 chain: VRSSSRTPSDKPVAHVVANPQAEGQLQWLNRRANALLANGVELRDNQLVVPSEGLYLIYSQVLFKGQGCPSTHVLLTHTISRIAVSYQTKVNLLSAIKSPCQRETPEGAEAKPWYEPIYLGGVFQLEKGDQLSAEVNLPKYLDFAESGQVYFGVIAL
Nature of the test: ELISA on chimeric/mutant TNFα.
Source text: as §1

Test [5] has as its target T4, H/M HincII chimeric TNFα (human 1-91, murine 92-157) (human; mouse).
T4 construct: Murine range printed 92-157 (human-aligned); also called Hu/M Hin C l1
T4 chain: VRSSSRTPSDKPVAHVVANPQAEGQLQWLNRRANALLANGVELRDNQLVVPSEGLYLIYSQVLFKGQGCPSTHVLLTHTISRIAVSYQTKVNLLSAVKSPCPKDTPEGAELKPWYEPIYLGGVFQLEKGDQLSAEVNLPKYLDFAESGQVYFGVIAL
Nature of the test: ELISA on chimeric/mutant TNFα.
Source text: as §1

The target in test [6] is T1, human TNFα (Tumor Necrosis …). The experiment in a line: KinExA, unknown antigen concentration method. Here is the method: (§2) The kinetic measurements of the anti-TNFα antibodies were evaluated using KinExA® and BIACORE® technologies. The KinExA® method involves solution-based determination of formal affinity measurements at equilibrium. To measure the binding kinetics of each human anti-TNFα antibody, two experiments in replicates of three were performed. In both experiments a known concentration of antigen was titrated and a different antibody concentration was added to each antigen titration and allowed to reach binding equilibrium. […] The results were analyzed by dual curve analysis. […] In addition, to negate the possibility of avidity effects, Fab fragments were generated by papain cleavage and the kinetic analysis was repeated (see Table 24).
In general terms: A kinetic exclusion assay measures how much of one partner remains free in solution.

The target is the same in test [7]. The experiment in a line: KinExA, TNFα counted as one trimer; KinExA, one trimer (52.5 kDa); lower bound of the Kd fit. The protocol: as §2
For test [8] the target is unchanged. Nature of the test: KinExA, TNFα counted as three monomers; KinExA in solution; TNFα site concentration as three monomers (17.5 kDa). Here is the method:
as §2

Test [9] shares this target. Nature of the test: KinExA, TNFα counted as three monomers. Here is the method: as §2
The target is the same in test [10]. The experiment in a line: KinExA, TNFα counted as one trimer; KinExA, one trimer (52.5 kDa); upper bound of the Kd fit. The protocol: as §2
For test [11] the target is unchanged. The experiment in a line: KinExA, TNFα counted as one trimer; KinExA in solution; TNFα site concentration as one trimer (52.5 kDa). The protocol:
as §2

Test [12] shares this target. Nature of the test: KinExA, TNFα counted as three monomers; KinExA, three monomers (17.5 kDa); upper bound of the Kd fit. Here is the method: as §2
The target of test [13] is T2, H/M BglI chimeric TNFα (human 1-36, …). Nature of the test: ELISA on expressed TNFα constructs.
Test [14] has as its target T3, H/M PvuII chimeric TNFα (human 1-125, …). Nature of the test: ELISA on expressed TNFα constructs.
In test [15] the target is T4, H/M HincII chimeric TNFα (human 1-91, …). The experiment in a line: ELISA on expressed TNFα constructs.
In a further test the target is T5, human GST-TNFα (human, UniProt P01375 77-233).
T5 construct: also called E. coli expressed soluble human TNF; not shown: GST fusion partner
The experiment in a line: ELISA, plate coated with 0.5 µg/ml human GST-TNFα, HRP goat anti-human IgG detection. Here is the method:
(§3) Anti-TNFα antibodies were also tested for their ability to bind to soluble recombinant TNFα. Human and monkey (cynomolgous macaque) TNFα were expressed in E. coli as fusion proteins with GST. Binding was assessed by ELISA. […] Bound antibody was detected using an HRP-conjugated goat anti-human IgG antibody.

Test [16] has as its target T1, human TNFα (Tumor Necrosis …). The experiment in a line: cell-based or functional assay. The source holds these as a separate data set.
For test [17] the target is unchanged. Nature of the test: cell-based or functional assay. This is another data set of the same source.
Test [18] shares this target. Nature of the test: cell-based or functional assay. The source holds these as a separate data set.
Test [19] deals with T6, monkey (cynomolgous macaque) GST-TNFα (cynomolgous macaque, UniProt P79337 77-233).
T6 construct: also called E. coli expressed soluble cynomolgous macaque monkey TNF; monkey TNFα; not shown: GST fusion partner
The experiment in a line: ELISA, plate coated with 2 µg/ml monkey (cynomolgus macaque) GST-TNFα, HRP goat anti-human IgG detection. Here is the method: as §3

For the next test, the target named is T7, mouse TNFα (mouse, UniProt P06804 80-235).
T7 construct: also called M TNFα; murine TNF
T7 sequence: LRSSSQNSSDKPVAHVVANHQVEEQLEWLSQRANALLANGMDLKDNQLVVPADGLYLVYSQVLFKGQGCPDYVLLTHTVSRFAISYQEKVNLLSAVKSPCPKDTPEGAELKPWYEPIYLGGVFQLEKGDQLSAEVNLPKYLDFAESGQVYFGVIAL
Nature of the test: binding to chimeric TNF proteins.

Test [20] deals with T1, human TNFα (Tumor Necrosis …). The experiment in a line: KinExA, TNFα counted as one trimer. Here is the method: as §2
For test [21], the target named is transmembrane mutant TNFα expressed on the surface of CHO cells (UniProt P01375 1-233). Nature of the test: cell-based or functional assay.
Chain of transmembrane mutant TNFα expressed on the surface of CHO cells (P01375 whole entry, change not shown, form in doubt): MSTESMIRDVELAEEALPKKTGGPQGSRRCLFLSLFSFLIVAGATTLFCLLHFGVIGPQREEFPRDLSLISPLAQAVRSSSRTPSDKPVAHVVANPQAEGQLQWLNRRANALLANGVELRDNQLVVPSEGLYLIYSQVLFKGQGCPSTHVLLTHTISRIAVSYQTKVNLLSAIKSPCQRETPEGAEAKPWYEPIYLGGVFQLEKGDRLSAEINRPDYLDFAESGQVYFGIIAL

Chain of human TNFα R31Q mutant (P01375 77-233 R107Q): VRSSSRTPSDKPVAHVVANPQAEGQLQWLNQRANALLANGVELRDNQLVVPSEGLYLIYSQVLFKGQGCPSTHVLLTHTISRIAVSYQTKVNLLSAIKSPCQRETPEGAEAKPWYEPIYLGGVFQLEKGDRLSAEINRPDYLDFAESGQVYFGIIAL

B1: Rabbit R014 (AB-TNFα-R014) (antibody, rabbit IgG1, V domains shown)
VH: QSLEESGGRLVTPGTPLTLTCTVSGIDLSSNTMGWFRRAPGKGLEWIGIIISSGTTYYASWVKGRFTISKTSTTVDLKITRPTTEDTATYFCARGWYEFNLWGPGTLVTVSS
VL: DVVMTQTPASVEAAVGGTVTIKCQASENIDILLAWYQQKVGQPPKLLIYRASKLASGAPSRFSGSGSGTEFTLTISDLECGDAATYYCQSNVGSTARSSYGNAFGGGTEVVVK
notes: Fully rabbit antibody, rabbit IgG1 heavy and kappa constant regions; cloned from well 7A4; also called RO14; Rabbit 014
B1: the “Average IC50, TNF induced apoptosis on MCF-7 cells, 1 hour pre-incubation” value in [1] is 0.0142 nM. The binding result (in the test with human TNFα R131Q mutant; with human TNFα R31Q mutant; in test [2]; in [3]; in [4]; in test [5]) was “binds” in each case. In addition, binding in test [6] was characterised by a dissociation constant (Kd) of 0.000787 nM. In test [6], the “Kd (M) High” value was 2.47e-12 M. Further, in test [6], the “Kd (M) Low” value stood at 1.56e-13 M.

B2: 3.2 (hybridoma, IgG2) (antibody, V domains shown)
VH: EVQLVQSGAEVKKPGESLKISCKTSEYSFTSYWIGWVRQMPGKGLEWMGIIYLGDSDTRYSPSFQGQVTISADKSISTAYLQWSSLKASDTAMYYCARSNWGLDYWGQGTLVTVSS
VL: QSVLTQPPSVSGAPGQRVTISCTGSSSNIGAGYDVHWYQQFPGTAPKLLIQGNSNRPSGVPDRFSGSKSGTSASLAITGLQAEDEADYYCQSYDSSLSGSVFGGGTKLTVL
notes: Hybridoma derived human IgG2, lambda light chain (V1-13/JL3); also called 3.2 Ab; 3.2.1
B2: the “Kd (M) Low” value came out at 2.43e-12 M in [7] and 7.3e-12 M in [9]. Further, the Kd stood at 0.0143 nM in test [8] and 0.00477 nM in test [11]. In addition, the “Kd (M) High” value came out at 7.6e-12 M in test [10] and 2.3e-11 M in test [12].

B3: 4.17 (hybridoma, IgG2) (antibody, V domains shown)
VH: QVQLVESGGGVVQPGRSLRLSCTTSGFTFSNYGMHWVRQAPGKGLEWVAVIWYDGSIKYYVDSVKGRFTISRDNSKNTLYLQMNSLRAEDTAVYYCAREKDCGGDCYSHYGMDVWGQGTTVTVSS
VL: DIQMTQSPSSLSASVGDRVTITCRASQGIRNDLGWYQQKPGKAPKRLIYAASSLQSGVPSRFSGSGSGTEFTLTISSLQPEDFATYYCLQHMSLPLTFGGGTKVEIK
notes: Hybridoma derived human IgG2 kappa
As to B3, the binding result (in test [13]; in test [14]; in test [15]; with human TNFα R131Q mutant) was “binds” throughout.

B4: 263 (antibody, human IgG1, V domains shown)
VH: EVQLVESGGGLIQPGGSLRLSCAASGFTVSRNYMSWVRQAPGKGLEWVSVIYSGDRTYYADSVKGRFTISRDNSKNTLYLQMNSLRAEDTAVYYCARGEGGFDYWGQGTLVTVSS
VL: EIVMTQSPATLSVSPGERATLSCRASQSVSSNLAWYQQKPGQAPRLLIHGASIRATGLPARFSGSGSGTEFTLTISSLQSEDFAVYYCQQYNYWWTFGQGTKVEIK
notes: XENOMAX derived, recombinant human IgG1 kappa; also called SC263
As to B4, the “EC50 (read off the curve)” value in the test with human GST-TNFα is ~3 ng/mL. The “In vivo Potency (IC50), ALT, hTNFα/D-GalN hepatic injury in mice” value in test [16] was found to be 48 nM. For the same molecule, the “In vivo Potency (IC50), human TNFα-induced IL-6 in mice” value in test [16] was determined as 35 nM. Besides, in test [17], the “Whole Blood IC50, TNFα-induced IL-8 production” value was 0.524 nM. Moreover, the Kd in test [9] came out at 0.0112 nM; in test [20] it was 0.00373 nM. For the same molecule, the “IC50 1 hr Pre-incubation, TNF induced apoptosis in MCF-7 cells” value in [18] was determined as 0.0595 nM. Also, the “IC50 18 hr Pre-incubation, TNF induced apoptosis in MCF-7 cells” value in [18] turned out to be 0.037 nM. Besides, the binding result in test [19] is reported as “no binding (tested: 100 ng/ml)”; in the test with mouse TNFα, “no binding”; with human TNFα R131Q mutant it was “binds”; in the test with human TNFα R31Q mutant, “binds”; in test [2], “binds”. For the same molecule, the “ADCC (%)” value in [21] amounted to 10%. In addition, the “CDC (%)” value in test [21] was 17%.

A word on the Kd: it is the free concentration of one partner at which half of the binding sites on the other are occupied at equilibrium, for simple one-to-one binding. For orientation: EC50 (read off the curve) means the concentration giving half of the maximal effect.
